The source of these data is paper PMC10514558, “Suramin inhibits SARS-CoV-2 nucleocapsid phosphoprotein genome packaging function”.

One data set has as its target SARS-CoV-2 N CTD (SARS-CoV-2, UniProt P0DTC9 247-364). Put plainly: MST. The note with it: protein: recombinant; tags: 6xHis; chain copies: 2; label: 5'-Cy5.
In the next data set the target is SARS-CoV-2 N NTD (SARS-CoV-2, UniProt P0DTC9 44-180). Put plainly: MST; 20 nM RNA; no suramin; apparent Kd. The note with it: protein: recombinant; tags: 6xHis; label: 5'-Cy5.

Turning to AUUAAAG (ssRNA) [Cy5-ssRNA 7-mer], the Kd was determined as 5.3 ± 0.2 µM with SARS-CoV-2 N CTD and 30.6 ± 4.9 µM with SARS-CoV-2 N NTD.
